Results taken from patent US6710026B1, “Protein domains in the hepatic glycogen-targetting subunit of protein phosphatase 1 and methods of making and using the same” (Medical Research Counsel, priority 1998, dated 2004).
Where no end group is shown, it is not given here.

T1: phosphorylase a (Oryctolagus cuniculus, UniProt P00489)
T1 sequence (P00489 2-843 limits assumed): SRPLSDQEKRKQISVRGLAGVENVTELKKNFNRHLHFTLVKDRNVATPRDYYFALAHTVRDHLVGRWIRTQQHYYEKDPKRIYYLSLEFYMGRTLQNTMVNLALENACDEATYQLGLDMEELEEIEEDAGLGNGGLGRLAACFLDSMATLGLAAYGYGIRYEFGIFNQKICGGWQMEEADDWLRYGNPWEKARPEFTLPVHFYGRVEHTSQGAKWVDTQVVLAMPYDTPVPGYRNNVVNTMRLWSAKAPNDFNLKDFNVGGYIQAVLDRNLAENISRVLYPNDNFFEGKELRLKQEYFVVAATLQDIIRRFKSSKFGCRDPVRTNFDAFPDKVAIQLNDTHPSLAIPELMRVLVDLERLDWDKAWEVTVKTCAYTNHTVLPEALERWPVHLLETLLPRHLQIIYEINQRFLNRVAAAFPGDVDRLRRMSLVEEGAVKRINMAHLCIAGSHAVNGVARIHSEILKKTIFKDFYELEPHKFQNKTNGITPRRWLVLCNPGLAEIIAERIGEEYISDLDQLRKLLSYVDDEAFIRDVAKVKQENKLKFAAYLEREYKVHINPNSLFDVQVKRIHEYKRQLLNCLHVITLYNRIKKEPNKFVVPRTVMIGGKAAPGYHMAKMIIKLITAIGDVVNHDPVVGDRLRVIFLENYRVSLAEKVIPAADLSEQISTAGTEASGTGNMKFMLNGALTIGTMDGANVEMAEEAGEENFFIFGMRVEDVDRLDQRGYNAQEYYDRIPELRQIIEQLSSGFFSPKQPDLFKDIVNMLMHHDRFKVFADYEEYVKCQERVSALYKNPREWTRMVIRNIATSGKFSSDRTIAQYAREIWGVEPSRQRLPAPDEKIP

B1: GST-GL: glutathione S-transferase fused to the full-length GL coding region (residues 1-284) of rat liver GL (protein)
chain: MAVDIEYSYSSMAPSLRRERFTFKISPKLNKPLRPCIQLGSKDEAGRMVAPTVQEKKVKKRVSFADNQGLALTMVKVFSEFDDPLDIPFNITELLDNIVSLTTAESESFVLDFPQPSADYLDFRNRLQTNHVCLENCVLKEKAIAGTVKVQNLAFEKVVKIRMTFDTWKSFTDFPCQYVKDTYAGSDRDTFSFDISLPEKIQSYERMEFAVCYECNGQSYWDSNKGKNYRITRAELRSTQGMTEPYNGPDFGISFDQFGSPRCSFGLFPEWPSYLGYEKLGPYY
modifications: left off: a dimerising Fc or GST
notes: glutathione S-transferase fused to the full-length GL coding region (residues 1-284) of rat liver GL
B2: GST-GL(94-284): GST fused to GL residues 94-284 (protein)
chain: LLDNIVSLTTAESESFVLDFPQPSADYLDFRNRLQTNHVCLENCVLKEKAIAGTVKVQNLAFEKVVKIRMTFDTWKSFTDFPCQYVKDTYAGSDRDTFSFDISLPEKIQSYERMEFAVCYECNGQSYWDSNKGKNYRITRAELRSTQGMTEPYNGPDFGISFDQFGSPRCSFGLFPEWPSYLGYEKLGPYY
modifications: left off: a dimerising Fc or GST
B3: GST-GL(134-284): GST fused to GL residues 134-284 (protein)
chain: LENCVLKEKAIAGTVKVQNLAFEKVVKIRMTFDTWKSFTDFPCQYVKDTYAGSDRDTFSFDISLPEKIQSYERMEFAVCYECNGQSYWDSNKGKNYRITRAELRSTQGMTEPYNGPDFGISFDQFGSPRCSFGLFPEWPSYLGYEKLGPYY
modifications: left off: a dimerising Fc or GST
B4: GST-GL(170-284): GST fused to GL residues 170-284 (protein)
chain: SFTDFPCQYVKDTYAGSDRDTFSFDISLPEKIQSYERMEFAVCYECNGQSYWDSNKGKNYRITRAELRSTQGMTEPYNGPDFGISFDQFGSPRCSFGLFPEWPSYLGYEKLGPYY
modifications: left off: a dimerising Fc or GST
B5: GST-GL(1-94): GST fused to GL residues 1-94 (protein)
chain: MAVDIEYSYSSMAPSLRRERFTFKISPKLNKPLRPCIQLGSKDEAGRMVAPTVQEKKVKKRVSFADNQGLALTMVKVFSEFDDPLDIPFNITEL
modifications: left off: a dimerising Fc or GST
B6: GST-GL(59-284): GST fused to GL residues 59-284 (protein)
chain: KKRVSFADNQGLALTMVKVFSEFDDPLDIPFNITELLDNIVSLTTAESESFVLDFPQPSADYLDFRNRLQTNHVCLENCVLKEKAIAGTVKVQNLAFEKVVKIRMTFDTWKSFTDFPCQYVKDTYAGSDRDTFSFDISLPEKIQSYERMEFAVCYECNGQSYWDSNKGKNYRITRAELRSTQGMTEPYNGPDFGISFDQFGSPRCSFGLFPEWPSYLGYEKLGPYY
modifications: left off: a dimerising Fc or GST
B7: GST-GL(1-271): GST fused to GL residues 1-271 (protein)
chain: MAVDIEYSYSSMAPSLRRERFTFKISPKLNKPLRPCIQLGSKDEAGRMVAPTVQEKKVKKRVSFADNQGLALTMVKVFSEFDDPLDIPFNITELLDNIVSLTTAESESFVLDFPQPSADYLDFRNRLQTNHVCLENCVLKEKAIAGTVKVQNLAFEKVVKIRMTFDTWKSFTDFPCQYVKDTYAGSDRDTFSFDISLPEKIQSYERMEFAVCYECNGQSYWDSNKGKNYRITRAELRSTQGMTEPYNGPDFGISFDQFGSPRCSFGLFPEW
modifications: left off: a dimerising Fc or GST
B8: GST-GL(1-257): GST fused to GL residues 1-257 (protein)
chain: MAVDIEYSYSSMAPSLRRERFTFKISPKLNKPLRPCIQLGSKDEAGRMVAPTVQEKKVKKRVSFADNQGLALTMVKVFSEFDDPLDIPFNITELLDNIVSLTTAESESFVLDFPQPSADYLDFRNRLQTNHVCLENCVLKEKAIAGTVKVQNLAFEKVVKIRMTFDTWKSFTDFPCQYVKDTYAGSDRDTFSFDISLPEKIQSYERMEFAVCYECNGQSYWDSNKGKNYRITRAELRSTQGMTEPYNGPDFGISFDQ
modifications: left off: a dimerising Fc or GST
B9: GST-GL(216-284): GST fused to GL residues 216-284 (protein)
chain: {GST}-NGQSYWDSNKGKNYRITRAELRSTQGMTEPYNGPDFGISFDQFGSPRCSFGLFPEWPSYLGYEKLGPYY
B10: GST-GL(1-216): GST fused to GL residues 1-216 (protein)
chain: MAVDIEYSYSSMAPSLRRERFTFKISPKLNKPLRPCIQLGSKDEAGRMVAPTVQEKKVKKRVSFADNQGLALTMVKVFSEFDDPLDIPFNITELLDNIVSLTTAESESFVLDFPQPSADYLDFRNRLQTNHVCLENCVLKEKAIAGTVKVQNLAFEKVVKIRMTFDTWKSFTDFPCQYVKDTYAGSDRDTFSFDISLPEKIQSYERMEFAVCYECN
modifications: left off: a dimerising Fc or GST

test system: PP1; assay: not given; conditions: recent studies; cited from earlier work

Molecule | binding to PP1
GM 63-75: peptide of amino acids 63 to 75 of GM (RVSFADSFGFNLV; UniProt Q16821 63-75, looked up, fragment) | shown to bind PP1

test system: not listed separately; assay: Co-sedimentation of GST-GL fusion proteins with hepatic glycogen; type: binding, rabbit; conditions: 100 000×g for 1 h, absence of glycogen
Description: Protein free glycogen was prepared by the following protocol. Glycogen-protein particles were isolated from the livers of New Zealand White rabbits. Protein was then stripped from the glycogen by boiling for 5 min in 1% (w/v) sodium dodecyl sulphate (SDS). The suspension was cooled to room temperature and centrifuged for 60 min at 100,000×g. The 100,000×g pellet was then resuspended in water, and the centrifugation and resuspension procedure repeated a further two times in order to completely remove residual SDS and protein. Any contaminating nucleotides were removed by incubating the glycogen for 15 min with mixed bed resin, AG 501-X8(D). The resin was removed by filtration and the glycogen concentration determined by the phenol/sulphuric acid method.
Protein free glycogen (10 mg/ml) in 50 mM Tris/HCl pH 7.5, 150 mM NaCl, 0.1% (v/v) 2-mercaptoethanol, 0.02% (w/v) Brij-35, 0.1 mg/ml bovine serum albumin was mixed with GST-GL fusion proteins (50 nM). […] The supernatant and pellet fractions were denatured in SDS, subjected to SDS-polyacrylamide gel electrophoresis and transferred to nitrocellulose. […]

Molecule | aggregation (pelleted in the absence of glycogen)
B1 | strong tendency to aggregate

same assay, conditions: protein free glycogen 10 mg/ml, fusion protein 50 nM, 100,000×g, immunoblot of supernatant and pellet

Molecule | co-sedimentation with glycogen (binding to glycogen)
B2 | detected exclusively in the 100,000×g pellet

target: PP1γ (Homo sapiens, UniProt P36873); assay: Blot overlay binding of digoxigenin-labelled PP1γ to GST-GL fusion proteins; conditions: fusion proteins on nitrocellulose membranes
Description: (§1) GST-GL fusion proteins were separated on SDS-PAGE and transferred to nitrocellulose membranes. They were probed with digoxigenin-PP1γ. Alternatively they were examined for binding of ^32P-labelled phosphorylase a. Non-specific binding to the membranes was blocked by incubation in 5% (w/v) marvel dried milk powder, 25 mM Tris/HCI pH 7.5, 500 mM NaCl for 16 hours. The samples were then probed for 3 h with ^32P-labelled phosphorylase a (100 nM) in 25 mM Tris/HCl pH 7.5, 250 mM NaCl, 1 mg/ml bovine serum albumin. The membranes were subsequently washed (3×30 min) with 25 mM Tris/HCl pH 7.5 before autoradiography.

Sequence of PP1γ (P36873 whole entry, the tested form may be a part): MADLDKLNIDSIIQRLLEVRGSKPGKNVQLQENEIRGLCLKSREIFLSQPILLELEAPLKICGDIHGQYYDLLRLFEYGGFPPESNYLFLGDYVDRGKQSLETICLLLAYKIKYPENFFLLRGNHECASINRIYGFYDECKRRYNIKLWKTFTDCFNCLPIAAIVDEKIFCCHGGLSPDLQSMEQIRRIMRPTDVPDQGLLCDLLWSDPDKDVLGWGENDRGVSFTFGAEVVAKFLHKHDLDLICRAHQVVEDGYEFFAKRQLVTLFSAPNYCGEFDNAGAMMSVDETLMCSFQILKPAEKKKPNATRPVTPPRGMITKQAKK

binding of digoxigenin-labelled PP1γ | Molecule
not | GST-GL(1-59): GST fused to GL residues 1-59 ({GST}-MAVDIEYSYSSMAPSLRRERFTFKISPKLNKPLRPCIQLGSKDEAGRMVAPTVQEKKVK)
not | B2
not | B3
not | B4
binds | B1
binds | B5
binds | B6

target: T1, phosphorylase a; assay: Blot overlay binding of 32P-labelled phosphorylase a to GST-GL fusion proteins; conditions: 100 nM 32P-phosphorylase a, fusion proteins on nitrocellulose membranes
Description: as §1

binding of 32P-labelled phosphorylase a | Molecule
found to bind | GST-GL(257-284): GST fused to GL residues 257-284 ({GST}-QFGSPRCSFGLFPEWPSYLGYEKLGPYY)
found to bind | GST-GL(269-284): GST fused to GL residues 269-284, the C-terminal 16 amino acids ({GST}-PEWPSYLGYEKLGPYY)
not | B7
found to bind | B1
not | B8
found to bind | B9
not | B10

test system: PP1GL complex; assay: not given; conditions: previous experiments; cited from earlier work

Molecule | disruption of the PP1GL complex
GM 63-93: peptide comprising residues 63-93 of the skeletal muscle glycogen targeting subunit (RVSFADSFGFNLVSVKEFDCWELPSASTTFD; UniProt Q16821 63-93, looked up, fragment) | did not abolish binding of GL to PP1
M110 1-38: peptide comprising the amino terminal 38 residues of the M110 subunit of the myosin targeting subunit of PP1 (MKMADAKQKRNEQLKRWIGSETDLEPPVVKRQKTKVKF; UniProt O14974 1-38, looked up, fragment) | could disrupt the PP1GL complex
